Patent US20210208163A1 (RUSH UNIVERSITY MEDICAL CENTER, published 2021)

B1: recombinant human ICOS (R&D Systems, 169-CS) (receptor, UniProt Q9Y6W8 21-141, looked up)
chain: EINGSANYEMFIFHNGGVQILCKYPDIVQQFKMQLLKGGQILCDLTKTKGSGNTVSIKSLKFCHSQLSNNSVSFFLYNLDHSHANYYFCNLSIFDPPPFKVTLTGGYLHIYESQLCCQLKF
B2: mouse ICOSL, wild type (RGD), full-length, N-terminal His-tag (ligand, not shown: small tags and cut ends)
chain: ETEVGAMVGSNVVLSCIDPHRRHFNLSGLYVYWQIENPEVSVTYYLPYKSPGINVDSSYKNRGHLSLDSMKQGNFSLYLKNVTPQDTQEFTCRVFMNTATELVKILEEVVRLRVAANFSTPVISTSDSSNPGQERTYTCMSKNGYPEPNLYWINTTDNSLIDTALQNNTVYLNKLGLYDVISTLRLPWTSRGDVLCCVENVALHQNITSISQAESFTGNNTKNPQETHNNE
notes: also called mICOSL; WT mICOSL
B3: recombinant human B7.1 (R&D Systems, 140-B1) (ligand, UniProt P33681 35-242, looked up)
chain: VIHVTKEVKEVATLSCGHNVSVEELAQTRIYWQKEKKMVLTMMSGDMNIWPEYKNRTIFDITNNLSIVILALRPSDEGTYECVVLKYEKDAFKREHLAEVTLSVKADFPTPSISDFEIPTSNIRRIICSTSGGFPEPHLSWLENGEELNAINTTVSQDPETELYAVSSKLDFNMTTNHSFMCLIKYGHLRVNQTFNWNTTKQEHFPDN
notes: also called RGD-lacking B7.1
B4: human ICOSL (inducible co-stimulator ligand), full-length, isoform 1, N-terminal His-tag (ligand, not shown: small tags and cut ends)
chain: DTQEKEVRAMVGSDVELSCACPEGSRFDLNDVYVYWQTSESKTVVTYHIPQNSSLENVDSRYRNRALMSPAGMLRGDFSLRLFNVTPQDEQKFHCLVLSQSLGFQEVLSVEVTLHVAANFSVPVVSAPHSPSQDELTFTCTSINGYPRPNVYWINKTDNSLLDQALQNDTVFLNMRGLYDVVSVLRIARTPSVNIGCCIENVLLQQNLTVGSQTGNDIGERDKITENPVSTGEKNAAT
notes: The reagent list also names a bought human ICOSL-His Tag (Thermo Fisher 11559H08H50); also called hICOSL; B7h

Legend:
[1] = biological target: B4; experiment: SPR
[2] = biological target: T1, recombinant mouse integrin αvβ3 (R&D Systems, 7889-AV-050) (mouse, UniProt P43406 31-988; O54890 26-717); experiment: SPR, ICOSL immobilised, inactive αvβ3 (EDTA, no Mn2+), steady-state affinity fit
T1 construct: also called mouse αvβ3 integrin
T1 sequence (P43406 31-988 limits assumed, chain 1 of 2): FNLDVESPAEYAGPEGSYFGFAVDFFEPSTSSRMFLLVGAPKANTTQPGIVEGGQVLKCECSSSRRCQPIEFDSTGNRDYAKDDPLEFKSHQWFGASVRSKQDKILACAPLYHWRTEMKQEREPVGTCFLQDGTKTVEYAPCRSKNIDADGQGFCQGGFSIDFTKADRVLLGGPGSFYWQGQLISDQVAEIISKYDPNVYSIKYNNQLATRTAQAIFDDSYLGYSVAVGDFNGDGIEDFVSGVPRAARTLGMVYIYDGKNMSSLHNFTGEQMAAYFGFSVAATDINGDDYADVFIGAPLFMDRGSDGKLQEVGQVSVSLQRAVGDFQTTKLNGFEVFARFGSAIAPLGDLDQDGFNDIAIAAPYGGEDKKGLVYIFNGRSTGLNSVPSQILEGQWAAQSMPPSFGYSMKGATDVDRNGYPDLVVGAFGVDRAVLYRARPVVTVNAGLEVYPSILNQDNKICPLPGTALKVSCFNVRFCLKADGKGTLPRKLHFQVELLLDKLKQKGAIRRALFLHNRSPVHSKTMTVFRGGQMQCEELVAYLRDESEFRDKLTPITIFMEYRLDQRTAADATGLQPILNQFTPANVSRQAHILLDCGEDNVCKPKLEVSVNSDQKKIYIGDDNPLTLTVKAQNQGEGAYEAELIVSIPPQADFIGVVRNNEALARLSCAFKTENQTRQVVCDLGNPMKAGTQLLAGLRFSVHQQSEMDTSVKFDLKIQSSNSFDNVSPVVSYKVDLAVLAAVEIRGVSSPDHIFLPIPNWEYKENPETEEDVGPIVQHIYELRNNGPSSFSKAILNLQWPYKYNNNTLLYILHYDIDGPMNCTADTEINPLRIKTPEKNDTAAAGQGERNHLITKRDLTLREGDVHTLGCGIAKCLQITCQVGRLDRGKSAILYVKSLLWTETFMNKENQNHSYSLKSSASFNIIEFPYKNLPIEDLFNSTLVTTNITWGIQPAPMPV
T1 sequence (O54890 26-717 limits assumed, chain 2 of 2): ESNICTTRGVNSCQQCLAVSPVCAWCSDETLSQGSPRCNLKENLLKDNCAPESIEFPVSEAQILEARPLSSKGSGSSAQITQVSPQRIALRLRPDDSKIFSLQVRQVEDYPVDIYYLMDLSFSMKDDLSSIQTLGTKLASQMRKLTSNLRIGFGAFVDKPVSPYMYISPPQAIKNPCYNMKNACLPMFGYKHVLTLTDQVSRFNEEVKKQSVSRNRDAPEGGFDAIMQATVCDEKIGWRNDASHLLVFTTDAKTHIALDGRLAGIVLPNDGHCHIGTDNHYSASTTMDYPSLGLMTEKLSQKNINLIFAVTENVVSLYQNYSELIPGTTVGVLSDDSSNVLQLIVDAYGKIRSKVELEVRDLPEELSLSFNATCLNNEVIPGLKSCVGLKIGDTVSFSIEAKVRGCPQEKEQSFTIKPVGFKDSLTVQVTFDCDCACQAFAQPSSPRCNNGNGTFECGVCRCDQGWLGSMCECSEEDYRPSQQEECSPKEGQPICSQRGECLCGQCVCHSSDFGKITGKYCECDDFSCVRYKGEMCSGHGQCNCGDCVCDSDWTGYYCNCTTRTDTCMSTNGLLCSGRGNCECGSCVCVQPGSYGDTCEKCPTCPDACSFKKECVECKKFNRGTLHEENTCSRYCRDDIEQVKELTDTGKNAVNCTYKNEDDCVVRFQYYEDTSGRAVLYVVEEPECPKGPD

[3] = biological target: T1, recombinant mouse integrin αvβ3 (R&D …); experiment: SPR, ICOSL immobilised, αvβ3 as analyte, 2 mM Ca2+ and 1 mM Mg2+ (inactive integrin)
[4] = biological target: T1, recombinant mouse integrin αvβ3 (R&D …); experiment: SPR, ICOSL immobilised, αvβ3 as analyte, 0.2 mM Ca2+ and 0.1 mM Mg2+, kinetic 1:1 fit
[5] = biological target: T1, recombinant mouse integrin αvβ3 (R&D …); experiment: SPR (Biacore T200), ICOSL immobilised on CM5, αvβ3 as analyte, Mn2+ (active integrin), kinetic 1:1 Langmuir fit (kd/ka)
[6] = biological target: T2, recombinant human integrin αvβ3 (R&D Systems, 3050-AV) (human, UniProt P06756 31-992; P05106 27-718); experiment: SPR, Mn2+ (active integrin)
T2 construct: Analyte in SPR; also called αvβ3 integrin
T2 sequence (P06756 31-992 limits assumed, chain 1 of 2): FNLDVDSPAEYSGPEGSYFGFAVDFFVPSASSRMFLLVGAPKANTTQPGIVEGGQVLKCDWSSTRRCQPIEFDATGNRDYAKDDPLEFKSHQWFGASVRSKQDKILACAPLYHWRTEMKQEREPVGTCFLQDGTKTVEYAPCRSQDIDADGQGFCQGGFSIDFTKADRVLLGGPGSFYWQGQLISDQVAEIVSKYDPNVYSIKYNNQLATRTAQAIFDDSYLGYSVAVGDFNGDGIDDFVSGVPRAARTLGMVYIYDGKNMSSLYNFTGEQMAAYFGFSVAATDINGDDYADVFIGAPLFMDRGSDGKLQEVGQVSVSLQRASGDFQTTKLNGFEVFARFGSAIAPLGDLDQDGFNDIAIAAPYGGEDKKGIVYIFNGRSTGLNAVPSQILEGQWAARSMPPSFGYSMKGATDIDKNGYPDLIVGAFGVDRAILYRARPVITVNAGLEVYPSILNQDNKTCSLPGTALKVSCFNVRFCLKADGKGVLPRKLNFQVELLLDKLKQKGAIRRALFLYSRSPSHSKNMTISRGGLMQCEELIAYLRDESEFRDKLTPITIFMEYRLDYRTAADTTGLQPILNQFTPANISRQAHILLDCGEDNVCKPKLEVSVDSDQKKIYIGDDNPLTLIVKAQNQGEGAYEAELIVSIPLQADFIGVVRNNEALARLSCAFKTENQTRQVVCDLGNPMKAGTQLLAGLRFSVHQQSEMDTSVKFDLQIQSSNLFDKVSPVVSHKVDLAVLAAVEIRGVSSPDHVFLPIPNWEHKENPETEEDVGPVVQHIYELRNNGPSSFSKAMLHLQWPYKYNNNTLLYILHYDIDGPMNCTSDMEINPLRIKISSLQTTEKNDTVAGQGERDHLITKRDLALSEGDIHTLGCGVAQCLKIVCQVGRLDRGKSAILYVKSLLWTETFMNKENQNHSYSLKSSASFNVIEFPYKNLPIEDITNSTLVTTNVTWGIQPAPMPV
T2 sequence (P05106 27-718 limits assumed, chain 2 of 2): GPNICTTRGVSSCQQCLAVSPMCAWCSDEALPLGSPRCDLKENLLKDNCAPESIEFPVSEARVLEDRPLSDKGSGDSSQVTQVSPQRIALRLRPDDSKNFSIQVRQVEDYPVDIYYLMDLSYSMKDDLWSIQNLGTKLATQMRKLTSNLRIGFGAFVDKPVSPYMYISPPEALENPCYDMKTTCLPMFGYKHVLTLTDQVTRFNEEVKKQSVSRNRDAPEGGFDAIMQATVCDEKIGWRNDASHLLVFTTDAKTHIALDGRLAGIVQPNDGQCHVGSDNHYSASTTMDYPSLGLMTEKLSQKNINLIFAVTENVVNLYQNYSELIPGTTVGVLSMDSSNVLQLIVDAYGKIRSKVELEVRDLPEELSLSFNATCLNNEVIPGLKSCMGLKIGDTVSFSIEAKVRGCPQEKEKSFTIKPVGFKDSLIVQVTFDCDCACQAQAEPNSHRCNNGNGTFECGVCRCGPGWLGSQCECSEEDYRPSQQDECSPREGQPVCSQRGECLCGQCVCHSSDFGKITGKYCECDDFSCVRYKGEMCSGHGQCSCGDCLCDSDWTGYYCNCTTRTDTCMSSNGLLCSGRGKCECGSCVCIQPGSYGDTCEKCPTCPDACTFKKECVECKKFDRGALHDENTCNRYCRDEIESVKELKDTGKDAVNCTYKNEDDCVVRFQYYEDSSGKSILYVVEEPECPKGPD

[7] = biological target: T3, recombinant human integrin αIIbβ3 (R&D Systems, 7148-A2) (human, UniProt P08514 32-993; P05106 27-718); experiment: SPR, ICOSL immobilised, integrin as analyte
T3 construct: also called αllbβ3
T3 sequence (P08514 32-993 limits assumed, chain 1 of 2): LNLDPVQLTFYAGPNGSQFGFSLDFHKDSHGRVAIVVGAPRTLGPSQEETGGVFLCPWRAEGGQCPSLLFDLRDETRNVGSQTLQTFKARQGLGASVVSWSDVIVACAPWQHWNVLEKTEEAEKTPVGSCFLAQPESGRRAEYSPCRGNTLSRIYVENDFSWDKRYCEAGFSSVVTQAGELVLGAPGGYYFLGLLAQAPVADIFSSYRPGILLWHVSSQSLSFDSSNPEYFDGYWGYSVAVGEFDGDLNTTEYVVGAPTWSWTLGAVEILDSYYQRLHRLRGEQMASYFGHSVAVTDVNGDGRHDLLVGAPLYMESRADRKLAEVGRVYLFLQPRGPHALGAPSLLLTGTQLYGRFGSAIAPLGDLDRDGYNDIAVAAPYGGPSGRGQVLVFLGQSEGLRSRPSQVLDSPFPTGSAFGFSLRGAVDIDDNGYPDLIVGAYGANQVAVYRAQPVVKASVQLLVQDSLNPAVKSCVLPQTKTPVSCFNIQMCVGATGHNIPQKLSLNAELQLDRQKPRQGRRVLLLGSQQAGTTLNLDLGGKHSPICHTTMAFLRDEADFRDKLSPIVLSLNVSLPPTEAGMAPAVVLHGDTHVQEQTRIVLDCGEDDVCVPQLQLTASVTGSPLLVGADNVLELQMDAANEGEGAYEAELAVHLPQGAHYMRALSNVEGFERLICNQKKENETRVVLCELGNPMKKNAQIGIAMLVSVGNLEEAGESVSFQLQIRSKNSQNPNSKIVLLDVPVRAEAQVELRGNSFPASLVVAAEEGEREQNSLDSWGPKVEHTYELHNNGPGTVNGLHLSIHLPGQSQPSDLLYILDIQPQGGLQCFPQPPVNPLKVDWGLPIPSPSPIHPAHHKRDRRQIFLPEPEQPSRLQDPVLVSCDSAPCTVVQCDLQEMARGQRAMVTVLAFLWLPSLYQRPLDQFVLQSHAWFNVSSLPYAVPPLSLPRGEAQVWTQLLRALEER
T3 sequence (P05106 27-718 limits assumed, chain 2 of 2): as the sequence (P05106 27-718 limits assumed, chain 2 of 2) above

[8] = biological target: recombinant human integrin αvβ5 (R&D Systems, 2528-AV) (human, UniProt P06756 31-992; P18084 24-719); experiment: SPR, ICOSL immobilised, integrin as analyte
Sequence of recombinant human integrin αvβ5 (R&D Systems, 2528-AV) (P06756 31-992 limits assumed, chain 1 of 2): as the sequence (P06756 31-992 limits assumed, chain 1 of 2) above
Sequence of recombinant human integrin αvβ5 (R&D Systems, 2528-AV) (P18084 24-719 limits assumed, chain 2 of 2): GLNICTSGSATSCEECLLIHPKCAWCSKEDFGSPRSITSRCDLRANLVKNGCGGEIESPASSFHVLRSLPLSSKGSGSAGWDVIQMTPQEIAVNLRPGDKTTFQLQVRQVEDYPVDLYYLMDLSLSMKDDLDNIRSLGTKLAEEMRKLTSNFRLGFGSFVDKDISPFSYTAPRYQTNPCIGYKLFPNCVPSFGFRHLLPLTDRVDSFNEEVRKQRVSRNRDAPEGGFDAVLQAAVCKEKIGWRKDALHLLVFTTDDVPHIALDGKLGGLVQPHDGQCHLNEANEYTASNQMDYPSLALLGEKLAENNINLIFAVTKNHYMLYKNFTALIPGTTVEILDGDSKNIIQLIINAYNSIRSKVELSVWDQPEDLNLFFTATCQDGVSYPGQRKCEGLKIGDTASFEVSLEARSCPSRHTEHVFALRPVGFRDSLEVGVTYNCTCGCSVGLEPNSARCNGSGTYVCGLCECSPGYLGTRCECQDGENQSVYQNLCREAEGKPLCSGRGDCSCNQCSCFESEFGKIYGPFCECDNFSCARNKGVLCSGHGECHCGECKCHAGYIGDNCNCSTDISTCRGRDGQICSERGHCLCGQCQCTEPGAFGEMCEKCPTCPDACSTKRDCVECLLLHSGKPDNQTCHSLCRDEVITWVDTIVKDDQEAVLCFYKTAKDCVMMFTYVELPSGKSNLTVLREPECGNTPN

[9] = biological target: T2, recombinant human integrin αvβ3 (R&D …); experiment: SPR, ICOSL immobilised, inactive αvβ3 (EDTA, no Mn2+), steady-state affinity fit
[10] = biological target: T2, recombinant human integrin αvβ3 (R&D …); experiment: SPR (Biacore T200), ICOSL immobilised on CM5, αvβ3 as analyte, Mn2+ (active integrin), kinetic 1:1 Langmuir fit (kd/ka)

B1 was tested, and the Kd [1] was 0.005 µM.

For B2, the Kd [2] was at least 2000 µM, the Kd [3] was 0.4 µM and the Kd [4] was 0.0213 µM. The Kd [5] was 0.0242 µM.

B3: no binding [6].

In the case of B4, the binding result [7] is reported as “no binding”, the binding result [8] is reported as “no binding” and the Kd [9] is reported as 0.412 µM. It also gave a Kd [10] of 0.0162 µM.
